Experimental data reported in PMC5931534.

Key:
[1] = target: calmodulin (CaM) (UniProt P62157)
[2] = target: calmodulin (CaM) (UniProt P62157); test: ELISA; 96-well MaxiSorp plates coated with 1 ug CaM at 4 C overnight, blocked with 4% BSA; 80 ng DAPK2 for 15 min at 30 C; detected with anti-DAPK2 antibody, HRP secondary and ABTS

Chain of FLAG-DAPK2 S289A (Q9UIK4 whole entry, stated change not applied): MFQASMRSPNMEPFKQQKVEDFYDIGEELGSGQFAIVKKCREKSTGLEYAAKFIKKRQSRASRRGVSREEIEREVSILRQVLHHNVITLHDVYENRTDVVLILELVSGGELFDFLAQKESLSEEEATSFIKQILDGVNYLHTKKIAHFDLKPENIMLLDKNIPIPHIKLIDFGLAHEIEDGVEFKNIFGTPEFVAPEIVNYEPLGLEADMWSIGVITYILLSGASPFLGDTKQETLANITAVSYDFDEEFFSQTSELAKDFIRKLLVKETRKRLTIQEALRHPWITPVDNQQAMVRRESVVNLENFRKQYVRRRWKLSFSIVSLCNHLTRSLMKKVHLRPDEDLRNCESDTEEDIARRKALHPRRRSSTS
Chain of FLAG-DAPK2 S289D (Q9UIK4 whole entry, stated change not applied): as above

fold induction of the catalytic activity (MLC phosphorylation, in vitro kinase assay) upon addition of Ca2+/CaM against EGTA [1] [fold]	fold lower ELISA signal than DAPK2 WT [2] [fold]	Substance
5.4		FLAG-DAPK2 S289A (from UniProt Q9UIK4-1 1-370) (enzyme)
1.6		FLAG-DAPK2 S289D (from UniProt Q9UIK4-1 1-370) (enzyme)
	5	DAPK2 S289D (ELISA CaM binding assay) (from UniProt Q9UIK4-1 1-370) (enzyme)
